According to patent US20110124071A1, “METHODS AND COMPOSITIONS FOR PRODUCING HYDROCARBONS” (priority 2009, published 2011):

B1: PMM0532: Prochlorococcus marinus CCMP1986 putative decarbonylase (SEQ ID NO: 19) (protein, listed as Prochlorococcus marinus)
chain: MQTLESNKKTNLENSIDLPDFTTDSYKDAYSRINAIVIEGEQEAHDNYISLATLIPNELEELTKLAKMELKHKRGFTACGRNLGVQADMIFAKEFFSKLHGNFQVALSNGKTTTCLLIQAILIEAFAISAYHVYIRVADPFAKKITQGVVKDEYLHLNYGQEWLKENLATCKDELMEANKVNLPLIKKMLDQVSEDASVLAMDREELMEEFMIAYQDTLLEIGLDNREIARMAMAAIV
B2: gll3146: Gloeobacter violaceus PCC7421 putative decarbonylase (SEQ ID NO: 15) (protein, listed as Gloeobacter violaceus)
chain: VNRTAPSSAALDYRSDTYRDAYSRINAIVLEGEREAHANYLTLAEMLPDHAEALKKLAAMENRHFKGFQSCARNLEVTPDDPFARAYFEQLDGNFQQAAAEGDLTTCMVIQALIIECFAIAAYNVYIPVADAFARKVTEGVVKDEYTHLNFGQQWLKERFVTVREGIERANAQNLPIVWRMLNAVEADTEVLQMDKEAIVEDFMIAYGEALGDIGFSMRDVMKMSARGLASAPRQ
B3: RS991709941: Synechococcus sp. RS9917 putative decarbonylase (SEQ ID NO: 23) (protein, listed as Synechococcus sp.)
chain: MPTLETSEVAVLEDSMASGSRLPDFTSEAYKDAYSRINAIVIEGEQEAHDNYIALGTLIPEQKDELARLARMEMKHMKGFTSCGRNLGVEADLPFAKEFFAPLHGNFQAALQEGKVVTCLLIQALLIEAFAISAYHIYIPVADPFARKITEGVVKDEYTHLNYGQEWLKANFEASKDELMEANKANLPLIRSMLEQVAADAAVLQMEKEDLIEDFLIAYQEALCEIGFSSRDIARMAAAALAV
B4: alr5283: Nostoc sp. PCC7210 putative decarbonylase (SEQ ID NO: 7) (protein, listed as Nostoc sp.)
chain: MQQVAADLEIDFKSEKYKDAYSRINAIVIEGEQEAYENYIQLSQLLPDDKEDLIRLSKMESRHKKGFEACGRNLQVSPDMEFAKEFFAGLHGNFQKAAAEGKIVTCLLIQSLIIECFAIAAYNIYIPVADDFARKITEGVVKDEYSHLNFGEVWLQKNFAQSKAELEEANRHNLPIVWKMLNQVADDAAVLAMEKEALVEDFMIQYGEALSNIGFTTRDIMRMSAYGLTAA
B5: Cyan7425—2986: Cyanothece sp. PCC7425 putative decarbonylase (SEQ ID NO: 31) (protein, listed as Cyanothece sp.)
chain: MSDCATNPALDYYSETYRNAYRRVNGIVIEGEKQAYDNFIRLAELLPEYQAELTRLAKMEARHQKSFVACGQNLKVSPDLDFAAQFFAELHQIFASAANAGQVATCLVVQALIIECFAIAAYNTYLPVADEFARKVTASVVQDEYSHLNFGEVWLQNAFEQCKDEIITANRLALPLIWKMLNQVTGELRILGMDKASLVEDFSTRYGEALGQIGFKLSEILSLSVQGLQAVTP
B6: RS9917—12945: Synechococcus sp. RS9917 putative decarbonylase (SEQ ID NO: 25) (protein, listed as Synechococcus sp.)
chain: MTQLDFASAAYREAYSRINGVVIVGEGLANRHFQMLARRIPADRDELQRLGRMEGDHASAFVGCGRNLGVVADLPLARRLFQPLHDLFKRHDHDGNRAECLVIQGLIVECFAVAAYRHYLPVADAYARPITAAVMNDESEHLDYAETWLQRHFDQVKARVSAVVVEALPLTLAMLQSLAADMRQIGMDPVETLASFSELFREALESVGFEAVEARRLLMRAAARMV
B7: Synechocystis sp. PCC6803 sll0208: Synechocystis sp. PCC6803 putative fatty aldehyde decarbonylase (SEQ ID NO: 3) (protein, listed as Synechocystis sp.)
chain: MPELAVRTEFDYSSEIYKDAYSRINAIVIEGEQEAYSNYLQMAELLPEDKEELTRLAKMENRHKKGFQACGNNLQVNPDMPYAQEFFAGLHGNFQHAFSEGKVVTCLLIQALIIEAFAIAAYNIYIPVADDFARKITEGVVKDEYTHLNYGEEWLKANFATAKEELEQANKENLPLVWKMLNQVQGDAKVLGMEKEALVEDFMISYGEALSNIGFSTREIMRMSSYGLAGV
B8: Synechocystis sp. PCC6803 sll0209: Synechocystis sp. PCC6803 acyl-ACP reductase (SEQ ID NO: 68) (protein, listed as Synechocystis sp.)
chain: MFGLIGHLTSLEHAQAVAEDLGYPEYANQGLDFWCSAPPQVVDNFQVKSVTGQVIEGKYVESCFLPEMLTQRRIKAAIRKILNAMALAQKVGLDITALGGFSSIVFEEFNLKQNNQVRNVELDFQRFTTGNTHTAYVICRQVESGAKQLGIDLSQATVAVCGATGDIGSAVCRWLDSKHQVKELLLIARNRQRLENLQEELGRGKIMDLETALPQADIIVWVASMPKGVEIAGEMLKKPCLIVDGGYPKNLDTRVKADGVHILKGGIVEHSLDITWEIMKIVEMDIPSRQMFACFAEAILLEFEGWRTNFSWGRNQISVNKMEAIGEASVKHGFCPLVAL
B9: AM1—4041: Acaryochloris marina MBIC11017 putative decarbonylase (SEQ ID NO: 9) (protein, listed as Acaryochloris marina)
chain: MPQTQAISEIDFYSDTYKDAYSRIDGIVIEGEQEAHENYIRLGEMLPEHQDDFIRLSKMEARHKKGFEACGRNLKVTCDLDFARRFFSDLHKNFQDAAAEDKVPTCLVIQSLIIECFAIAAYNIYIPVADDFARKITESVVKDEYQHLNYGEEWLKAHFDDVKAEIQEANRKNLPIVWRMLNEVDKDAAVLGMEKEALVEDFMIQYGEALSNIGFSTGEIMRMSAYGLVAA

Key:
Assay type in all cases: cell-based
E. coli MG1655 = assay: Coexpression of putative decarbonylase with S. elongatus PCC7942 orf1594 in E. coli, GC-MS of extracts; settings: coexpressed with S. elongatus PCC7942 orf1594 in E. coli MG1655, M9 minimal media
Procedure: After a 1 μl splitless injection (inlet temperature held at 300° C.) onto the GC/MS column, the oven was held at 100° C. for 3 mins. The temperature was ramped up to 320° C. at a rate of 20° C./min. The oven was held at 320° C. for an additional 5 min. The flow rate of the carrier gas helium was 1.3 ml/min. The MS quadrapole scanned from 50 to 550 m/z. Retention times and fragmentation patterns of product peaks were compared with authentic references to confirm peak identity.
The genomic DNA encoding Synechococcus elongatus PCC7942 orf1594 (YP—400611; putative aldehyde-generating enzyme) (SEQ ID NO: 65) was amplified and cloned into the NcoI and EcoRI sites of vector OP-80 (pCL1920 derivative) under the control of the Ptrc promoter. The resulting construct (“OP80-PCC7942—1594”) was transformed into E. coli MG1655 and the cells were grown at 37° C. in M9 minimal media with 1% (w/v) glucose as carbon source and supplemented with 100 μg/ml spectinomycin. When the culture reached OD600 of 0.8-1.0, it was induced with 1 mM IPTG and cells were grown for an additional 18-20 h at 37° C. Cells from 0.5 ml of culture were extracted with 0.5 ml of ethyl acetate. After sonication for 60 min, the sample was centrifuged at 15,000 rpm for 5 min. The solvent layer was analyzed by GC-MS as described in Example 1.
The genomic DNA encoding Synechococcus elongatus PCC7942 orf1593 (YP—400610; putative decarbonylase) (SEQ ID NO: 1) was amplified and cloned into the NdeI and XhoI sites of vector OP-183 (pACYC derivative) under the control of the Ptrc promoter. The resulting construct was cotransformed with OP80-PCC7942—1594 into E. coli MG1655 and the cells were grown at 37° C. in M9 minimal media supplemented with 100 μg/ml spectinomycin and 100 μg/ml carbenicillin. The cells were cultured and extracted as in Example 3 and analyzed by GC-MS as described in Example 1. […]

[1] = tested on: E. coli MG1655 ΔfadD lacZ::Ptrc-′tesA; assay: Heterologous expression in a fatty aldehyde-producing E. coli strain with MSMEG—5739, GC-MS; settings: decarbonylase coexpressed with carboxylic acid reductase MSMEG—5739
[2] = tested on: E. coli MG1655 ΔfadE lacZ::Ptrc ′tesA-fadD; assay: Heterologous expression in a fatty acyl-CoA-producing E. coli strain, GC-MS; settings: for conversion of fatty aldehydes into alkanes/alkenes: decarbonylase coexpressed with acyl-ACP reductase in acyl-CoA-producing strain
Source text: The genomic DNA encoding Acaryochloris marina MBIC11017 AM1—4041 (YP—001518340; putative fatty aldehyde decarbonylase) (SEQ ID NO: 9) was synthesized and cloned into the NdeI and XhoI sites of vector OP-183 (pACYC derivative) under the control of the Ptrc promoter. The resulting construct was cotransformed with OP80-PCC7942—1594 into E. coli MG1655 ΔfadE lacZ::Ptrc ′tesA-fadD. This strain expresses a cytoplasmic version of the E. coli thioesterase, ′TesA, and the E. coli acyl-CoA synthetase, FadD, under the control of the Ptrc promoter, and therefore produces fatty acyl-CoAs. The cells were grown at 37° C. in M9 minimal media supplemented with 100 μg/ml spectinomycin and 100 μg/ml carbenicillin. The cells were cultured and extracted as in Example 3 and analyzed by GC-MS as described in Example 1.
The genomic DNA encoding Synechocystis sp. PCC6803 sll0208 (NP_442147; putative fatty aldehyde decarbonylase) (SEQ ID NO: 3) was synthesized and cloned into the NdeI and XhoI sites of vector OP-183 (pACYC derivative) under the control of the Ptrc promoter. The genomic DNA encoding Synechocystis sp. PCC6803 sll0209 (NP_442146; acyl-ACP reductase) (SEQ ID NO: 68) was synthesized and cloned into the NcoI and EcoRI sites of vector OP-183 (pACYC derivative) under the control of the Ptrc promoter. The resulting constructs were cotransformed with into E. coli MG1655 ΔfadE lacZ::Ptrc ′tesA-fadD. This strain expresses a cytoplasmic version of the E. coli thioesterase, ′TesA, and the E. coli acyl-CoA synthetase, FadD, under the control of the Ptrc promoter, and therefore produces fatty acyl-CoAs. The cells were grown at 37° C. in M9 minimal media supplemented with 100 μg/ml spectinomycin and 100 μg/ml carbenicillin. The cells were cultured and extracted as in Example 3 and analyzed by GC-MS as described in Example 26.

Molecule | fatty aldehyde decarbonylase activity (alkane/alkene production) (E. coli MG1655) | conversion of fatty aldehydes provided by MSMEG—5739 to alkanes [1] | conversion of fatty aldehydes into alkanes/alkenes [2] | use of acyl-CoA as substrate to produce fatty aldehydes ([2]; reductase coexpressed with a fatty aldehyde decarbonylase) | production of fatty aldehydes or fatty alcohols ([2]; reductase expressed alone in acyl-CoA-producing strain)
B1 | active fatty aldehyde decarbonylase | converted fatty aldehydes provided by MSMEG—5739 to the corresponding alkanes |  |  | 
B2 | active fatty aldehyde decarbonylase | converted fatty aldehydes provided by MSMEG—5739 to the corresponding alkanes |  |  | 
B3 | active fatty aldehyde decarbonylase | converted fatty aldehydes provided by MSMEG—5739 to the corresponding alkanes |  |  | 
B4 | active fatty aldehyde decarbonylase | converted fatty aldehydes provided by MSMEG—5739 to the corresponding alkanes |  |  | 
B5 | active fatty aldehyde decarbonylase |  |  |  | 
B6 | active fatty aldehyde decarbonylase | converted fatty aldehydes provided by MSMEG—5739 to the corresponding alkanes |  |  | 
B7 |  |  | octadecenal was converted into heptadecene |  | 
B8 |  |  |  | able to use acyl-CoA as a substrate | did not produce any fatty aldehydes or fatty alcohols
B9 | active fatty aldehyde decarbonylase | converted fatty aldehydes provided by MSMEG—5739 to the corresponding alkanes | converted into pentadecene, pentadecane and heptadecene |  | 
